B1: VCAM-1/IgG1 fusion protein (seven extracellular immunoglobulin-like domains) (Fc fusion, UniProt P19320 25-698, looked up)
chain: FKIETTPESRYLAQIGDSVSLTCSTTGCESPFFSWRTQIDSPLNGKVTNEGTTSTLTMNPVSFGNEHSYLCTATCESRKLEKGIQVEIYSFPKDPEIHLSGPLEAGKPITVKCSVADVYPFDRLEIDLLKGDHLMKSQEFLEDADRKSLETKSLEVTFTPVIEDIGKVLVCRAKLHIDEMDSVPTVRQAVKELQVYISPKNTVISVNPSTKLQEGGSVTMTCSSEGLPAPEIFWSKKLDNGNLQHLSGNATLTLIAMRMEDSGIYVCEGVNLIGKNRKEVELIVQEKPFTVEISPGPRIAAQIGDSVMLTCSVMGCESPSFSWRTQIDSPLSGKVRSEGTNSTLTLSPVSFENEHSYLCTVTCGHKKLEKGIQVELYSFPRDPEIEMSGGLVNGSSVTVSCKVPSVYPLDRLEIELLKGETILENIEFLEDTDMKSLENKSLEMTFIPTIEDTGKALVCQAKLHIDDMEFEPKQRQSTQTLYVNVAPRDTTVLVSPSSILEEGSSVNMTCLSQGFPAPKILWSRQLPNGELQPLSENATLTLISTKMEDSGVYLCEGINQAGRSRKEVELIIQVTPKDIKLTAFPSESVKEGDTVIISCTCGNVPETWIILKKKAETGDTVLKSIDGAYTIRKAQLKDAGVYECESKNKVGSQLRSLTLDVQGRENNKDYFSPE
notes: domain: seven extracellular immunoglobulin-like domains; also called VCAM-I/Ig; VCAM-I/IgG; not shown: IgG1 portion
B2: E-selectin (immobilized) (ligand, UniProt P16581 22-556, looked up)
chain: WSYNTSTEAMTYDEASAYCQQRYTHLVAIQNKEEIEYLNSILSYSPSYYWIGIRKVNNVWVWVGTQKPLTEEAKNWAPGEPNNRQKDEDCVEIYIKREKDVGMWNDERCSKKKLALCYTAACTNTSCSGHGECVETINNYTCKCDPGFSGLKCEQIVNCTALESPEHGSLVCSHPLGNFSYNSSCSISCDRGYLPSSMETMQCMSSGEWSAPIPACNVVECDAVTNPANGFVECFQNPGSFPWNTTCTFDCEEGFELMGAQSLQCTSSGNWDNEKPTCKAVTCRAVRQPQNGSVRCSHSPAGEFTFKSSCNFTCEEGFMLQGPAQVECTTQGQWTQQIPVCEAFQCTALSNPERGYMNCLPSASGSFRYGSSCEFSCEQGFVLKGSKRLQCGPTGEWDNEKPTCEAVRCDAVHQPPKGLVRCAHSPIGEFTYKSSCAFSCEEGFELHGSTQLECTSQGQWTEEVPSCQVVKCSSLAVPGKINMSCSGEPVFGTVCKFACPEGWTLNGSAARTCGATGHWSGLLPTCEAPTESNIP
notes: Control adhesion molecule; also called E-selection
B3: CD11a I domain/IgG chimeric protein (Fc fusion, UniProt P20701 153-335, looked up)
chain: GNVDLVFLFDGSMSLQPDEFQKILDFMKDVMKKLSNTSYQFAAVQFSTSYKTEFDFSDYVKRKDPDALLKHVKHMLLLTNTFGAINYVATEVFREELGARPDATKVLIIITDGEATDSGNIDAAKDIIRYIIGIGKHFQTKESQETLHKFASKPASEFVKILDTFEKLKDLFTELQKKIYVIE
notes: domain: I domain; Negative control in the I domain ELISA; also called CD11a/IgG4 protein; not shown: IgG4 portion
B4: soluble ICAM-1/IgG1 fusion protein (Fc fusion, UniProt P05362 28-480, looked up)
chain: QTSVSPSKVILPRGGSVLVTCSTSCDQPKLLGIETPLPKKELLLPGNNRKVYELSNVQEDSQPMCYSNCPDGQSTAKTFLTVYWTPERVELAPLPSWQPVGKNLTLRCQVEGGAPRANLTVVLLRGEKELKREPAVGEPAEVTTTVLVRRDHHGANFSCRTELDLRPQGLELFENTSAPYQLQTFVLPATPPQLVSPRVLEVDTQGTVVCSLDGLFPVSEAQVHLALGDQRLNPTVTYGNDSFSAKASVSVTAEDEGTQRLTCAVILGNQSQETLQTVTIYSFPAPNVILTKPEVSEGTEVTVKCEAHPRAKVTLNGVPAQPLGPRAQLLLKATPEDNGRSFSCSATLEVAGQLIHKNQTRELRVLYGPRLDERDCPGNWTWPENSQQTPMCQAWGNPLPELKCLKDGTFPLPIGESVTVTRDLEGTYLCRARSTQGEVTRKVTVNVLSPRYE
notes: also called ICAM-I/IgG; not shown: IgG1 portion
B5: soluble ICAM-R/IgG1 fusion protein (Fc fusion, UniProt P32942 30-485, looked up)
chain: QEFLLRVEPQNPVLSAGGSLFVNCSTDCPSSEKIALETSLSKELVASGMGWAAFNLSNVTGNSRILCSVYCNGSQITGSSNITVYRLPERVELAPLPPWQPVGQNFTLRCQVEDGSPRTSLTVVLLRWEEELSRQPAVEEPAEVTATVLASRDDHGAPFSCRTELDMQPQGLGLFVNTSAPRQLRTFVLPVTPPRLVAPRFLEVETSWPVDCTLDGLFPASEAQVYLALGDQMLNATVMNHGDTLTATATATARADQEGAREIVCNVTLGGERREARENLTVFSFLGPIVNLSEPTAHEGSTVTVSCMAGARVQVTLDGVPAAAPGQPAQLQLNATESDDGRSFFCSATLEVDGEFLHRNSSVQLRVLYGPKIDRATCPQHLKWKDKTRHVLQCQARGNPYPELRCLKEGSSREVPVGIPFFVNVTHNGTYQCQASSSRGKYTLVVVMDIEAGSSH
notes: not shown: IgG1 portion
B6: VCAM-1 domains 1 and 2 fused to human immunoglobulin Fc (Fc fusion, UniProt P19320 25-220, looked up)
chain: FKIETTPESRYLAQIGDSVSLTCSTTGCESPFFSWRTQIDSPLNGKVTNEGTTSTLTMNPVSFGNEHSYLCTATCESRKLEKGIQVEIYSFPKDPEIHLSGPLEAGKPITVKCSVADVYPFDRLEIDLLKGDHLMKSQEFLEDADRKSLETKSLEVTFTPVIEDIGKVLVCRAKLHIDEMDSVPTVRQAVKELQVY
notes: domain: domains 1 and 2; also called two domain form of VCAM-1; two domain VCAM-1 expression construct; not shown: human immunoglobulin Fc

How the values were obtained:
[1] = biological target: T1, LFA-1 leucine zipper fusion protein (UniProt P20701 26-1090; P05107 23-700); test: ELISA, CAM/Ig on LFA-1LZ captured with TS2/4.1
T1 construct: also called LFA-1LZ; captured CD11a/CD18; not shown: leucine zipper strand

[2] = biological target: T2, human αd/CD18 expressed on transfected cells (human, UniProt P05107 23-769); test: adhesion of αdβ2-transfected CHO cells to coated wells
T2 construct: whole, on cells; Heterodimer on COS, CHO or JY transfectants; also called αd/CD18 transfectants; αd/CD18 CHO transfected cells

[3] = biological target: B4; test: ELISA, detection with anti-IgG4 HP6023
[4] = biological target: B1; test: ELISA, detection with anti-IgG4 HP6023
[5] = biological target: B5; test: ELISA, detection with anti-IgG4 HP6023
[6] = biological target: T3, α4β1 expressed on CHO cells (UniProt P13612 34-1032; P05556 21-798, limits assumed); test: adhesion of transfected CHO cells to immobilized CAM, crystal violet
T3 construct: whole, on cells; also called VLA-4; α4 transformed CHO cells

[7] = biological target: T2, human αd/CD18 expressed on transfected …; test: as above
[8] = biological target: T1, LFA-1 leucine zipper fusion protein; test: ELISA, CAM/Ig on captured integrin
[9] = biological target: T2, human αd/CD18 expressed on transfected …; test: summary of the adhesion and flow cytometry assays
[10] = biological target: T2, human αd/CD18 expressed on transfected …; test: adhesion of transfected CHO cells to immobilized CAM, crystal violet, A570

T3 sequence (P13612 34-1032 limits assumed, chain 1 of 2): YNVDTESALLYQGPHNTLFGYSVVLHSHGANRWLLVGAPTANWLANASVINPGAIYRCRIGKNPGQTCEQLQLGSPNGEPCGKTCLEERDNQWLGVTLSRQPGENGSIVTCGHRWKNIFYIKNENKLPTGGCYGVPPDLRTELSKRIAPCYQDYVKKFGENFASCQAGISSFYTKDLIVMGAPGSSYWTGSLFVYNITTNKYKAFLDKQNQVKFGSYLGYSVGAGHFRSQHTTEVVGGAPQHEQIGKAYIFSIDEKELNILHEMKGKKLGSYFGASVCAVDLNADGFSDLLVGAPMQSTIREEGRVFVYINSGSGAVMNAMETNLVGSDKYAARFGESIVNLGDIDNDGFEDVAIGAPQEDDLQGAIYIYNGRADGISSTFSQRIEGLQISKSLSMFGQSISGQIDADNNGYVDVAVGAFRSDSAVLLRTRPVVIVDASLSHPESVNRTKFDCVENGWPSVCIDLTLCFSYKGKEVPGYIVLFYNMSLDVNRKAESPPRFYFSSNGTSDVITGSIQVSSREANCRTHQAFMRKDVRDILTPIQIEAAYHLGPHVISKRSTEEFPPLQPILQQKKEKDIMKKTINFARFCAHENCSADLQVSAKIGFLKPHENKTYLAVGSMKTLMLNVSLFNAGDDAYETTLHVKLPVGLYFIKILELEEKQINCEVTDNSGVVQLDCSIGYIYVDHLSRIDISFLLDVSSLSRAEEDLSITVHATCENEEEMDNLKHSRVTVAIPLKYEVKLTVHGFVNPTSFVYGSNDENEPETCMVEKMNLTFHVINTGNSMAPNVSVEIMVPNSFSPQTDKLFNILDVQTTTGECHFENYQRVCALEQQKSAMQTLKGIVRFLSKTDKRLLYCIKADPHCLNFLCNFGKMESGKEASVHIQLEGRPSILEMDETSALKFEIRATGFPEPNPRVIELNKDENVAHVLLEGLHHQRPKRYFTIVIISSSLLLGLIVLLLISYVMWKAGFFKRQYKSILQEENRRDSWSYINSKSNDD
T3 sequence (P05556 21-798 limits assumed, chain 2 of 2): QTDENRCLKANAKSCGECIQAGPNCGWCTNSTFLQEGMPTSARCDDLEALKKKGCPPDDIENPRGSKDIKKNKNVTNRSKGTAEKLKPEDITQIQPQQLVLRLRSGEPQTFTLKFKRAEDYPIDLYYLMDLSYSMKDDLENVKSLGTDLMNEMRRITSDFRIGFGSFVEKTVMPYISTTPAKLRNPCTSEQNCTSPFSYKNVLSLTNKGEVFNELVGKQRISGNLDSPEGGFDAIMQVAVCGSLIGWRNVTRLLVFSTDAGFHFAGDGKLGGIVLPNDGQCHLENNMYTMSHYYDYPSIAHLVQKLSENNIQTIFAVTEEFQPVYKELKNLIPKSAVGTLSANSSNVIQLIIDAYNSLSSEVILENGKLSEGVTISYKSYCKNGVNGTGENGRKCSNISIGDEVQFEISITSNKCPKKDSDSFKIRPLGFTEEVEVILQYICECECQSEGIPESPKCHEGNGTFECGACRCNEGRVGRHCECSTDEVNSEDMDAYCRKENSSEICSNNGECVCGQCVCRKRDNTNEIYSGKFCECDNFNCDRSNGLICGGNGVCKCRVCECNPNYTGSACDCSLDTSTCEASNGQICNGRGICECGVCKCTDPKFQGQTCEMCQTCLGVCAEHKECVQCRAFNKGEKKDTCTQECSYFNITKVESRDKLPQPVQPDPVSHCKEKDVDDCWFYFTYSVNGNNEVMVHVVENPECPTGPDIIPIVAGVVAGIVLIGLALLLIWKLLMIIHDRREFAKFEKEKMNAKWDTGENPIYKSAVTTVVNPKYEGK

B1: no binding [1].

B2: no binding (tested: 100 ng/ml coat) [2].

B3: no binding [3]; no binding [4]; no binding [5].

B4 was tested, and the binding result [6] was “no binding (tested: 0.5 µg/well)”, the binding result [7] was “no binding (tested: 0.5 µg/well)” and the fold above background [8] was roughly 15 fold.

B5: binds [9].

B6: binds [10].
